Assay results taken from paper PMC4442024 (Nature, 2015).
“And” between values parts separate entries of the source, which are not always exact repeats. Equal entries are not always repeated.

B1: purified recombinant Flag-tagged SNAP29 (natural protein, human, UniProt O95721 1-258, looked up)
chain: MSAYPKSYNPFDDDGEDEGARPAPWRDARDLPDGPDAPADRQQYLRQEVLRRAEATAASTSRSLALMYESEKVGVASSEELARQRGVLERTEKMVDKMDQDLKISQKHINSIKSVFGGLVNYFKSKPVETPPEQNGTLTSQPNNRLKEAISTSKEQEAKYQASHPNLRKLDDTDPVPRGAGSAMSTDAYPKNPHLRAYHQKIDSNLDELSMGLGRLKDIALGMQTEIEEQDDILDRLTTKVDKLDVNIKSTERKVRQL
B2: purified recombinant Flag-tagged VAMP8 (natural protein, human, UniProt Q9BV40 1-100, looked up)
chain: MEEASEGGGNDRVRNLQSEVEGVKNIMTQNVERILARGENLEHLRNKTEDLEATSEHFKTTSQKVARKFWWKNVKMIVLICVIVFIIILFIVLFATGAFS

What was measured:
[1] = biological target: purified recombinant ATG14 (UniProt Q6ZNE5); assay: SEC-MALS
[2] = biological target: T1, purified recombinant Flag–STX17 (human, UniProt P56962 1-302); assay: SEC
T1 sequence (looked up): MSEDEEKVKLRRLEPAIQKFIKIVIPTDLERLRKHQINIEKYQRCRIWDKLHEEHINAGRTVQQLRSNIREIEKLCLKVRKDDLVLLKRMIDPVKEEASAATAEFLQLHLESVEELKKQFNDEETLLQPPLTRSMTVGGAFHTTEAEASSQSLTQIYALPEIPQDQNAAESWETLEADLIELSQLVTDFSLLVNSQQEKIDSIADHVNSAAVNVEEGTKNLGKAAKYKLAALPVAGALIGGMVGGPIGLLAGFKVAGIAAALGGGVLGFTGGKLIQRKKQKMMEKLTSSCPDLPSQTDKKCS

[3] = biological target: B1; assay: SEC

Molecule: purified recombinant ATG14 (from UniProt Q6ZNE5 1-492) (natural protein; other documents disagree on this pair)
- stoichiometry N [1]: 2 and 4

Molecule: B1
- binding result [2]: binds

Molecule: B2
- binding result [3]: binds
